In patent US20100216659A1:

What was measured:
[1] = target: gp120 pre-complexed with sCD4 (HIV-1); assay: yeast display flow cytometry, gp120 titrated in the presence of sCD4, MFI of antigen binding
[2] = target: monomeric gp120 (HIV-1) (HIV-1); assay: yeast display flow cytometry, gp120 titrated in the absence of sCD4, MFI of antigen binding

Substance: scFv X5 displayed on yeast (X5-pPNLS in EBY100)
- Kd [1]: 1.1 nM
- Kd [2]: 14.5 nM
